This is an account of results in US11773160.

Where only a bound is given, the exact number is not on record here.

Experiment [1] deals with trimeric IL-2 receptor on HEK-Blue IL-2 reporter cells (UniProt P01589). Kind of experiment: cell-based or functional assay.
Experiment [2] concerns the target IL-2R on murine splenocytes (C57BL/6). Kind of experiment: cell-based or functional assay.

trimeric IL-2 receptor on HEK-Blue IL-2 reporter cells, sequence (P01589 22-272 limits assumed, chain 1 of 3): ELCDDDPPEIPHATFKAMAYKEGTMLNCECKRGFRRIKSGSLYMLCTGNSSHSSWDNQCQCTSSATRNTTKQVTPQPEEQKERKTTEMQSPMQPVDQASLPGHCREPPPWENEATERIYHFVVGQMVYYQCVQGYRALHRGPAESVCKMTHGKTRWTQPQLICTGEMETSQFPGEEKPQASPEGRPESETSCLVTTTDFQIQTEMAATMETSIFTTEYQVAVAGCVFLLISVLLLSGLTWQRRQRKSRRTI
trimeric IL-2 receptor on HEK-Blue IL-2 reporter cells, sequence (P14784 27-551 limits assumed, chain 2 of 3, further chain): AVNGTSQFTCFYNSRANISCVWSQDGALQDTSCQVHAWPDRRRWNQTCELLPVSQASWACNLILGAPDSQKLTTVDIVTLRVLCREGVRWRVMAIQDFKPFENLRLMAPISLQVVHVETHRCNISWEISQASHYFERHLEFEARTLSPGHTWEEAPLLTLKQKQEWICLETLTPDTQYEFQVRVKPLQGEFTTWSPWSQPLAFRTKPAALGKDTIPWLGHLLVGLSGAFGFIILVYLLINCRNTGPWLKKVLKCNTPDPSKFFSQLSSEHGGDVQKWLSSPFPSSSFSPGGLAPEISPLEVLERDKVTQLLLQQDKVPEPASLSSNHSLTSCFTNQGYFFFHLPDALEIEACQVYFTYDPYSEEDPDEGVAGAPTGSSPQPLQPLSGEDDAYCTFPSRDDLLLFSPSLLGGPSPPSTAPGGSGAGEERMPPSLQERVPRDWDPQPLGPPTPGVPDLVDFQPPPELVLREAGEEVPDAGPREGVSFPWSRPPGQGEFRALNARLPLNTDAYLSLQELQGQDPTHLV
trimeric IL-2 receptor on HEK-Blue IL-2 reporter cells, sequence (P31785 23-369 limits assumed, chain 3 of 3, further chain): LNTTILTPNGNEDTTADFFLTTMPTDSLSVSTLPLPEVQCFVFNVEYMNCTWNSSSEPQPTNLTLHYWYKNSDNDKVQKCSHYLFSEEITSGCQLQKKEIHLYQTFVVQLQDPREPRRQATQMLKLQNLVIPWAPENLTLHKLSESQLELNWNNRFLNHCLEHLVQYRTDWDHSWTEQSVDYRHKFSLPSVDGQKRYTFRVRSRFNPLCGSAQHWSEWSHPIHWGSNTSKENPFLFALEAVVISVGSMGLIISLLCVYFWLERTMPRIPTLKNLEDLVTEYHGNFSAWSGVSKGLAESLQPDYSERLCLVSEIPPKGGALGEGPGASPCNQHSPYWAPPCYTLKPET

In experiment [1], “Proleukin (aldesleukin) (from UniProt P60568 22-153) (ligand)” returned an EC50 (M), SEAP of HEK-Blue IL-2 reporter cells of 4.28e-12 M. In experiment [2], this substance came in with an EC50 CD8 cells (nM), pSTAT5 MFI of 4.1 nM; an EC50 NK cells (nM), pSTAT5 MFI of 1.4 nM; an EC50 Treg cells (nM), pSTAT5 MFI of under 0.016 nM.
